The record followed here is paper PMC9351521 (Proceedings of the National Academy of Sciences of the …, 2022).

Several values for one entry are separate records, joined by “and”; a condition that tells them apart may be missing. Identical values can stand only once.

What is called Kd is a measure of binding affinity in units of concentration. High values mean lower affinity, low ones higher affinity. The koff is a measure of how fast the partners let go of each other. A higher koff goes with a short-lived complex. For orientation: kon means the second-order rate constant of association. A high value points to fast association.

Conditions in all cases: both partners purified
For assay [1], the target named is T1, RBD-Fc (SARS-CoV-2, wild-type RBD (P0DTC2 …)).
T1 construct: also called RBD (immobilized as RBD-Fc on the chip)
As to the kind of experiment: SPR; […]; Biacore T200, PBS pH 7.4 with 0.005% P20, 25 °C; 1:1 binding model; […]. A general note: In SPR one partner is held on a chip, and binding of the other changes the refractive index at the surface.

Assay [2] deals with T2, biotinylated RBD (wild type) (SARS-CoV-2, wild-type RBD (P0DTC2 …)). The assay can be described thus: SPR; […]; Biacore T200, PBS pH 7.4 with 0.005% P20, 25 °C; kinetic fit, 1:1 binding model; […].
Assay [3] deals with RBD-Fc (SARS-CoV-2, wild-type RBD (P0DTC2 …)). As to the kind of experiment: SPR; Biacore T200, PBS pH 7.4 with 0.005% P20, 25 °C; […]; 1:1 binding model.
The target of assay [4] is T2, biotinylated RBD (wild type). The assay can be described thus: SPR; […]; Biacore T200, PBS pH 7.4 with 0.005% P20, 25 °C; […].
The target in a further assay is biotinylated RBD (SARS-CoV-2, wild-type RBD (P0DTC2 …)). The assay can be described thus: SPR; Biacore T200, PBS pH 7.4 with 0.005% P20, 25 °C; […].

B1: H11-A10 (VHH)
VHH: QVQLVESGGGLMQAGGSLRLSCAVSGRTFSTAAMGWFRQAPGKEREFVAAIRWSGGSAYYADSVKGRFTISRDKAKNTVYLQMNSLKYEDTAVYYCAGFSATRSLLSDYATWPYDYWGQGTQVTVSS
For the molecule B1, in the assay with RBD-Fc [1], the equilibrium dissociation constant (Kd) was 9.2 nM and 9.3 nM; the koff is 0.055 s⁻¹ and 0.047 s⁻¹; the on-rate (kon) was 5.9e+06 M⁻¹ s⁻¹ and 5e+06 M⁻¹ s⁻¹.

B2: H11-H4 Y104F (VHH)
VHH: QVQLVESGGGLMQAGGSLRLSCAVSGRTFSTAAMGWFRQAPGKEREFVAAIRWSGGSAYYADSVKGRFTISRDKAKNTVYLQMNSLKYEDTAVYYCAQTHYVSFLLSDYATWPYDYWGQGTQVTVSS
Regarding B2, in assay [2], the Kd was 37.4 nM and 33.2 nM; the koff was 0.072 s⁻¹ and 0.074 s⁻¹; the on-rate constant (kon) was 1.9e+06 M⁻¹ s⁻¹ and 2.2e+06 M⁻¹ s⁻¹.

B3: nanobody H11-B5 (VHH)
VHH: QVQLVESGGGLMQAGGSLRLSCAVSGRTFSTAAMGWFRQAPGKEREFVAAIRWSGGSAYYADSVKGRFTISRDKAKNTVYLQMNSLKYEDTAVYYCASYQATRSLLSDYATWPYDYWGQGTQVTVSS
The molecule B3 displayed a t1/2 in the assay with RBD-Fc [3] of 14 s.

B4: H11-H4 Y101A (VHH)
VHH: QVQLVESGGGLMQAGGSLRLSCAVSGRTFSTAAMGWFRQAPGKEREFVAAIRWSGGSAYYADSVKGRFTISRDKAKNTVYLQMNSLKYEDTAVYYCAQTHAVSYLLSDYATWPYDYWGQGTQVTVSS
Regarding B4, the dissociation constant Kd in assay [4] is 791 nM.

B5: nanobody H11-H4 R52A (VHH)
VHH: QVQLVESGGGLMQAGGSLRLSCAVSGRTFSTAAMGWFRQAPGKEREFVAAIAWSGGSAYYADSVKGRFTISRDKAKNTVYLQMNSLKYEDTAVYYCAQTHYVSYLLSDYATWPYDYWGQGTQVTVSS
B5: the binding result with biotinylated RBD is recorded as “no binding”.

B6: H11-H4 Q98R H100E (D4 hybrid) (VHH)
VHH: QVQLVESGGGLMQAGGSLRLSCAVSGRTFSTAAMGWFRQAPGKEREFVAAIRWSGGSAYYADSVKGRFTISRDKAKNTVYLQMNSLKYEDTAVYYCARTEYVSYLLSDYATWPYDYWGQGTQVTVSS
Turning to B6, in assay [2], the Kd is 4.3 nM and 4.8 nM; the koff was 0.024 s⁻¹ and 0.025 s⁻¹; the on-rate (kon) is 5.5e+06 M⁻¹ s⁻¹ and 5.2e+06 M⁻¹ s⁻¹.

B7: H11-B5 (VHH)
VHH: QVQLVESGGGLMQAGGSLRLSCAVSGRTFSTAAMGWFRQAPGKEREFVAAIRWSGGSAYYADSVKGRFTISRDKAKNTVYLQMNSLKYEDTAVYYCASYQATRSLLSDYATWPYDYWGQGTQVTVSS
B7: in the assay with RBD-Fc [1], the Kd was 8.8 nM and 7.6 nM; the koff was 0.051 s⁻¹ and 0.046 s⁻¹; the on-rate constant (kon) was 5.8e+06 M⁻¹ s⁻¹ and 6.1e+06 M⁻¹ s⁻¹.

B8: nanobody H11-H4 R52K (VHH)
VHH: QVQLVESGGGLMQAGGSLRLSCAVSGRTFSTAAMGWFRQAPGKEREFVAAIKWSGGSAYYADSVKGRFTISRDKAKNTVYLQMNSLKYEDTAVYYCAQTHYVSYLLSDYATWPYDYWGQGTQVTVSS
Consider B8, for which the binding result with biotinylated RBD is “no binding”.

B9: nanobody H11-H6 (VHH)
VHH: QVQLVESGGGLMQAGGSLRLSCAVSGRTFSTAAMGWFRQAPGKEREFVAAIRWSGGSAYYADSVKGRFTISRDKAKNTVYLQMNSLKYEDTAVYYCAGSKITRSLLSDYATWPYDYWGQGTQVTVSS
In the case of B9, in the assay with RBD-Fc [3], the t1/2 turned out to be 25 s.

B10: nanobody H11-A10 (VHH)
VHH: QVQLVESGGGLMQAGGSLRLSCAVSGRTFSTAAMGWFRQAPGKEREFVAAIRWSGGSAYYADSVKGRFTISRDKAKNTVYLQMNSLKYEDTAVYYCAGFSATRSLLSDYATWPYDYWGQGTQVTVSS
The molecule B10 came in with a t1/2 with RBD-Fc [3] of 14 s.

B11: nanobody H11-H4 R52E (VHH)
VHH: QVQLVESGGGLMQAGGSLRLSCAVSGRTFSTAAMGWFRQAPGKEREFVAAIEWSGGSAYYADSVKGRFTISRDKAKNTVYLQMNSLKYEDTAVYYCAQTHYVSYLLSDYATWPYDYWGQGTQVTVSS
Turning to B11, in the assay with biotinylated RBD, the binding result is listed as “no binding”.

B12: H11-H4 Y104S (VHH)
VHH: QVQLVESGGGLMQAGGSLRLSCAVSGRTFSTAAMGWFRQAPGKEREFVAAIRWSGGSAYYADSVKGRFTISRDKAKNTVYLQMNSLKYEDTAVYYCAQTHYVSSLLSDYATWPYDYWGQGTQVTVSS
Take B12: in assay [4], binding was characterised by a dissociation constant (Kd) of 273 nM.

B13: H11 V101Y R103S (VHH)
VHH: QVQLVESGGGLMQAGGSLRLSCAVSGRTFSTAAMGWFRQAPGKEREFVAAIRWSGGSAYYADSVKGRFTISRDKAKNTVYLQMNSLKYEDTAVYYCAQTRYTSSLLSDYATWPYDYWGQGTQVTVSS
As for B13, binding in assay [4] was characterised by a dissociation constant (Kd) of 1700 nM.

B14: H11-H6 (VHH)
VHH: QVQLVESGGGLMQAGGSLRLSCAVSGRTFSTAAMGWFRQAPGKEREFVAAIRWSGGSAYYADSVKGRFTISRDKAKNTVYLQMNSLKYEDTAVYYCAGSKITRSLLSDYATWPYDYWGQGTQVTVSS
For B14, in the assay with RBD-Fc [1], the Kd was 8.1 nM and 8.3 nM; the koff was 0.032 s⁻¹ and 0.025 s⁻¹; the kon is 3.9e+06 M⁻¹ s⁻¹ and 3e+06 M⁻¹ s⁻¹.
